The record followed here is US20210206865A1 (Regeneron, published 2021).

As a reminder, the EC50 is the concentration that produces a half-maximal response. A high value points to lower potency in that assay.

The target of experiment [1] is T1, human BCMA on the surface of cell lines (NCI-H929, MM.1S, OPM-2, RPMI-8226, Daudi, Raji, MOLP-8, U266) (human, UniProt Q02223 1-184).
T1 construct: Endogenous BCMA of human myeloma and lymphoma cell lines; also called TNFRSF17; CD269
T1 sequence: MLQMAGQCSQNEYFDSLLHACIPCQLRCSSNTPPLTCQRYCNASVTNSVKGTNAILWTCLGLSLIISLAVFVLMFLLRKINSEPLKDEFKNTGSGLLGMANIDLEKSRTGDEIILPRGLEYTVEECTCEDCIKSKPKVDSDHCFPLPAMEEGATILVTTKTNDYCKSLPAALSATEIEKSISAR
The experiment in a line: flow cytometry, Alexa647 conjugate on Raji cells. The method, then:
(§1) Cells were then washed and fixed for 25 mins at 4° C. using a 50% solution of BD Cytofix (BD, Cat #554655) diluted in PBS. […] After gating for live cells and single cells, the mean fluorescent intensity (MFI) was determined, and MFI values were plotted in Graphpad Prism using a four-parameter logistic equation over a 10-point response curve to calculate EC₅₀s. The zero condition for each dose-response curve is also included in the analysis as a continuation of the two-fold serial dilution and is represented as the lowest dose.

The target in experiment [2] is T1, human BCMA on the surface of cell lines …. The experiment in a line: flow cytometry, Alexa647 conjugate on Daudi cells. On the procedure:
as §1

For experiment [3] the target is unchanged. Briefly: flow cytometry, Alexa647 conjugate on NCI-H929 cells. On the procedure:
as §1

B1: bsAb25442D bispecific antibody (REGN5459), anti-BCMA x anti-CD3 (bispecific antibody, human IgG4 S228P, kappa)
heavy 1: EVQLVESGGGLVQPGGSLRLSCAASGFTFSNFWMTWVRQAPGKGLEWVANMNQDGSEKYYVDSVKGRFTISRDNAKSSLYLQMNSLRAEDTAVYYCARDREYCISTSCYDDFDYWGQGTLVTVSSASTKGPSVFPLAPCSRSTSESTAALGCLVKDYFPEPVTVSWNSGALTSGVHTFPAVLQSSGLYSLSSVVTVPSSSLGTKTYTCNVDHKPSNTKVDKRVESKYGPPCPPCPAPPVAGPSVFLFPPKPKDTLMISRTPEVTCVVVDVSQEDPEVQFNWYVDGVEVHNAKTKPREEQFNSTYRVVSVLTVLHQDWLNGKEYKCKVSNKGLPSSIEKTISKAKGQPREPQVYTLPPSQEEMTKNQVSLTCLVKGFYPSDIAVEWESNGQPENNYKTTPPVLDSDGSFFLYSRLTVDKSRWQEGNVFSCSVMHEALHNHYTQKSLSLSLGK
heavy 2: EVQLVESGGGLVQPGRSLRLSCAASGFTFDDYSMHWVRQAPGKGLEWVSGISWNSGSIGYADSVKGRFTISRDNAKNSLYLQMNSLRAEDTALYYCAKYGSGYGKFYYYGMDVWGQGTTVTVSSASTKGPSVFPLAPCSRSTSESTAALGCLVKDYFPEPVTVSWNSGALTSGVHTFPAVLQSSGLYSLSSVVTVPSSSLGTKTYTCNVDHKPSNTKVDKRVESKYGPPCPPCPAPPVAGPSVFLFPPKPKDTLMISRTPEVTCVVVDVSQEDPEVQFNWYVDGVEVHNAKTKPREEQFNSTYRVVSVLTVLHQDWLNGKEYKCKVSNKGLPSSIEKTISKAKGQPREPQVYTLPPSQEEMTKNQVSLTCLVKGFYPSDIAVEWESNGQPENNYKTTPPVLDSDGSFFLYSRLTVDKSRWQEGNVFSCSVMHEALHNRFTQKSLSLSPGK
light: not shown
notes: Anti-BCMA arm from mAb21581, anti-CD3 arm and common light chain from mAb7221G20; also called mAb25442D; mAb25442D-A647
Take B1: the “S/N (ratio of mAb25442D-A647 MFI to Isotype-A647 MFI)” value came to 2 in experiment [1], 3 in experiment [2] and 470 in experiment [3]. The molecule further yielded an EC50 in experiment [3] of 79 nM.
